Values quoted from earlier work in paper PMC3589724 (Scientific Reports, 2013).

Assays:
[1] = test system: PC12B cells
[2] = test system: CaM; details: in vitro, PC12B cells
[3] = test system: CaM; details: position Phe42

B1: S41A Nm mutant: Nm point mutant S41A (literature) (protein, UniProt P06837 1-227, looked up, variant S41A)
Neuromodulin: MLCCMRRTKQVEKNDEDQKIEQDGVKPEDKAHKAATKIQAAFRGHITRKKLKGEKKGDAPAAEAEAKEKDDAPVADGVEKKEGDGSATTDAAPATSPKAEEPSKAGDAPSEEKKGEGDAAPSEEKAGSAETESAAKATTDNSPSSKAEDGPAKEEPKQADVPAAVTDAAATTPAAEDAATKAAQPPTETAESSQAEEEKDAVDEAKPKESARQDEGKEDPEADQEHA
association of Nm with the membrane skeleton [1]: inhibiting the association of Nm with the membrane skeleton of PC12B cells
Ca^2+ sensitivity of interaction with CaM [2]: insensitive to Ca^2+ concentrations in vitro

B2: Phe-to-Trp substitution: Nm with Phe-to-Trp substitution at Phe42 (literature) (protein, UniProt P06837 1-227, looked up, variant F42W)
Neuromodulin: MLCCMRRTKQVEKNDEDQKIEQDGVKPEDKAHKAATKIQASWRGHITRKKLKGEKKGDAPAAEAEAKEKDDAPVADGVEKKEGDGSATTDAAPATSPKAEEPSKAGDAPSEEKKGEGDAAPSEEKAGSAETESAAKATTDNSPSSKAEDGPAKEEPKQADVPAAVTDAAATTPAAEDAATKAAQPPTETAESSQAEEEKDAVDEAKPKESARQDEGKEDPEADQEHA
increase in Nm-CaM affinity on Phe-to-Trp substitution [3]: 10 fold
